Laboratory results from patent US20210238276A1 (INTEGRAL MOLECULAR, published 2021).

Experiments:
Assay in all cases: flow cytometry, transfected HEK-293T
mouse GLUT1 (mmGLUT1) = biological target: T1, mouse GLUT1 (mmGLUT1) (mouse, UniProt P17809 1-492)
T1 construct: whole, on cells
T1 sequence (looked up): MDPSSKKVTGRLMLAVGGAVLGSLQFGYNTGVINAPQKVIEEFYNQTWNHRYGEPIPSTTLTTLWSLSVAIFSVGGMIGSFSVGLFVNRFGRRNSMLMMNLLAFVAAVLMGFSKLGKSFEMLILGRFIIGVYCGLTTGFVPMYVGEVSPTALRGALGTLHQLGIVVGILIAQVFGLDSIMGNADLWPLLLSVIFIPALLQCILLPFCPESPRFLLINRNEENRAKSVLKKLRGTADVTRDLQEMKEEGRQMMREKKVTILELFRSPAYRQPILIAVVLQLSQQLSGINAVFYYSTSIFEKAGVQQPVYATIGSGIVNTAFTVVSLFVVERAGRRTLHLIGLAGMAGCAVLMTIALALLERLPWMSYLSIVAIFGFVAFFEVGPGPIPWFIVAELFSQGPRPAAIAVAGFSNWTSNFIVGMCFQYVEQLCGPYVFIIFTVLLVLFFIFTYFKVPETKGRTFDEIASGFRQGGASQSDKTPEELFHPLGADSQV
Procedure: (§1) HEK-293T cells were transfected by CaPO₄ with plasmids in 6-well culture plates (Falcon) at 750,000 cells/well. At 48 hours post transfection, cells were stained with anti-V5 and anti-GLUT4 MAbs (purified scFv, 2 μg/ml) followed by biotinylated goat anti-mouse or human antibody (1:500) and streptavidin-PerCP (1:500). Fluorescence was detected using an Intellicyt high-throughput flow cytometer (HTFC; Intellicyt, Albuquerque, N. Mex.). For cell permeabilization, cells were treated with saponin at 0.1% in PBS for 20 minutes. To discriminate intact (live) and permeabilized (dead) cells without the use of detergent, propidium iodide (PI) was added to HEK-293T cells at 1 ug/ml just prior to flow cytometry. Where indicated, cytochalasin B (Sigma) was used at a final concentration of 10 uM and phloretin (Sigma) was used at a final concentration of 100 uM, each added in 10% NGS for 30 minutes prior to antibody staining as well as included with the primary antibody.

human GLUT2 (hsGLUT2) = biological target: T2, human GLUT2 (hsGLUT2) (human, UniProt P11168 1-524)
T2 construct: whole, on cells
T2 sequence (looked up): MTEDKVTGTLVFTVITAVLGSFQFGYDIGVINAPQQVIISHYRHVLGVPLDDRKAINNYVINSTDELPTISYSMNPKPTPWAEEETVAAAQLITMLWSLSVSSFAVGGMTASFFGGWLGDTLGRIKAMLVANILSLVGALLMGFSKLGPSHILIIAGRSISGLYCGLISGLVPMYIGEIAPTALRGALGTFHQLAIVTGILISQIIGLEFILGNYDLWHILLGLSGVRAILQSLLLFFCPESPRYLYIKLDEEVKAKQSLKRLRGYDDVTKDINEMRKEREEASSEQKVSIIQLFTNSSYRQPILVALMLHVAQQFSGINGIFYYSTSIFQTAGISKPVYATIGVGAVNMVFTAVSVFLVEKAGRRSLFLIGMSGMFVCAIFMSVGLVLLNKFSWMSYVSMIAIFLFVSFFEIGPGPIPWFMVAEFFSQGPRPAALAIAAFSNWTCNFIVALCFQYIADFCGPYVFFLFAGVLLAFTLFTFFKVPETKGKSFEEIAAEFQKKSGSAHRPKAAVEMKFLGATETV
Procedure: as §1

human GLUT3 (hsGLUT3) = biological target: T3, human GLUT3 (hsGLUT3) (human, UniProt P11169 1-496)
T3 construct: whole, on cells
T3 sequence (looked up): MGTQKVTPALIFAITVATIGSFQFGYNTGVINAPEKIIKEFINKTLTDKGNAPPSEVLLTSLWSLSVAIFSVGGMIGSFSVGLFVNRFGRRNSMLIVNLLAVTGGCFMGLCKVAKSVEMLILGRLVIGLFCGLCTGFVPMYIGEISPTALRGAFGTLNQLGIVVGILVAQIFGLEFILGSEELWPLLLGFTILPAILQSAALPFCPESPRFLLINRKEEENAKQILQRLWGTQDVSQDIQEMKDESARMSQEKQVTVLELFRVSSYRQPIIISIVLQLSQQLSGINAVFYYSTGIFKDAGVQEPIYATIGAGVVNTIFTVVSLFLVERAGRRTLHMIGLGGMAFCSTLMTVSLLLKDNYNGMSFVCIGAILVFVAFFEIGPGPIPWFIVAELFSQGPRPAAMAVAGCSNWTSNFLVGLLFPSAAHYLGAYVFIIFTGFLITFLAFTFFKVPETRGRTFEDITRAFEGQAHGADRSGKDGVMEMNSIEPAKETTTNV
Procedure: as §1

human GLUT1 (hsGLUT1) = biological target: T4, human GLUT1 (hsGLUT1) (human, UniProt P11166 1-492)
T4 construct: whole, on cells
T4 sequence (looked up): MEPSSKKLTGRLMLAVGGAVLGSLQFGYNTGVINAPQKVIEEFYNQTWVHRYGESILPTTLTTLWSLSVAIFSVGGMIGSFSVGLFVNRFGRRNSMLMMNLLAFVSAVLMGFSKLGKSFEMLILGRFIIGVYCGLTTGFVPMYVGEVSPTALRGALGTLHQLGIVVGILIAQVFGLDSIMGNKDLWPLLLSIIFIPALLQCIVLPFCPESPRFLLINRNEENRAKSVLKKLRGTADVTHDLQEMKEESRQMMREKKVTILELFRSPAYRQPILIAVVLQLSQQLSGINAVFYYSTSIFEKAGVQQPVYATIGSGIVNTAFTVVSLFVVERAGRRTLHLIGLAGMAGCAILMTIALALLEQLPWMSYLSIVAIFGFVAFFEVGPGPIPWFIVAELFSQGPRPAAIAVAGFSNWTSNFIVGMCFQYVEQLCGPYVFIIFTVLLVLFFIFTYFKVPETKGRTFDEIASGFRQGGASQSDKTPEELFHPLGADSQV
Procedure: as §1

Measured: binding result

B1: AB111 (Fc fusion)
scFv: ALTQPSSVSANPGETVKITCSGSGSWYGWFQQKSPGSAPVTVIYSNDKRPSDIPSRFSGSKSGSTSTLTITGVQVEDEAVYYCGNWDIFGAGTTLTVLGQSSRSSGGGGSSGGGGSAVTLDESGGGLQTPGGALSLVCKASGFTFSSHGMGWVRQAPGKGLEWVASISTGRYTFYAPAVKGRATISRDNGQSTVRLQLNNLRAEDTATYYCTKCAGLNGCGGGEIDAWGHGTEVIVSS
notes: Bivalent scFv-Fc; also called MAb AB111; not shown: Fc fragment of human IgG1, cloned in frame with the scFv
no binding (tested: 2 µg/ml): mouse GLUT1 (mmGLUT1) | human GLUT2 (hsGLUT2) | human GLUT3 (hsGLUT3) | human GLUT1 (hsGLUT1)

B2: AB108 (Fc fusion)
scFv: ALTQPSSVSANLGGTVKITCSGSSGSYGWYQQKAPGSAPVTLIYRNDKRPSDIPSRFSGSESGSTGTLTITGVQAEDEAVYFCGGYDSSAGYAAFGAGTTLTVLGQSSRSSGGGGSSGGGGSAVTLDESGGGLQTPGGALSLVCKASGFTFSSHGMGWVRQAPGKGLEWVGSISTGRYTFYAPAVKGRATISRDNGQSTLRLQLNNLRAEDTGTYYCTKCAGLNGCGGGEIDAWGHGTEVIVSS
notes: Bivalent scFv-Fc; also called MAb AB108; not shown: Fc fragment of human IgG1, cloned in frame with the scFv
no binding (tested: 2 µg/ml): mouse GLUT1 (mmGLUT1) | human GLUT2 (hsGLUT2) | human GLUT3 (hsGLUT3) | human GLUT1 (hsGLUT1)

B3: AB105 (Fc fusion)
scFv: ALTQPSSVSANPGETVEITCSGDSSYYGWYQQKSPGSAPVTVIYANTNRPSDIPSRFSGSASGSTATLTITGVQAEDEAVYYCGSADSTYAGIFGAGTTLTVLGQSSRSSGGGGSSGGGGSAVTLDESGGGLQTPGGALSLICKASGFTFSSYTMNWVRQAPGKGLEWVGVISNSGRTTNYGAAVQGRATISRDNGQSTVRLQLNNLRAEDTGTYYCAKSSASASCAWWAGRSYPCSANRIDAWGHGTEVIVSS
notes: Bivalent scFv-Fc; also called MAb AB105; not shown: Fc fragment of human IgG1, cloned in frame with the scFv
no binding (tested: 2 µg/ml): mouse GLUT1 (mmGLUT1) | human GLUT2 (hsGLUT2) | human GLUT3 (hsGLUT3) | human GLUT1 (hsGLUT1)
